Assay [1] deals with human lysozyme c (human) (UniProt P61626).
Assay [2] has as its target recombinant wild type SliC (surface-exposed lysozyme inhibitor of c-type lysozyme, NGO1063) of N. gonorrhoeae FA1090 (N. gonorrhoeae FA1090). The assay can be described thus: BLI; biotinylated rSliC (20 ug/mL, 10 min) immobilised on streptavidin sensors, increasing concentrations of HL in solution; Kinetic Buffer (20 mM HEPES pH 8, 15 mM NaCl, 0.002 Tween 20, 0.1 mg/mL BSA); association and dissociation 600 s; 2:1 (Heterogeneous Ligand) model; three biological …; OctetRed 96. For orientation: Biolayer interferometry detects binding as a change in optical thickness at a sensor tip.

The results in this text go back to PMC6033465.

As for “recombinant wild type SliC (surface-exposed lysozyme inhibitor of c-type lysozyme, NGO1063) of N. gonorrhoeae FA1090 (natural protein)”, the IC50 of SliC against the lytic activity of HL towards M. lysodeikticus peptidoglycan (fluorescein-labeled cell walls; 2.5 μM HL, 0-10 μM SliC) in assay [1] is 1.85 µM.

B1: human lysozyme c (enzyme)
chain: KVFERCELARTLKRLGMDGYRGISLANWMCLAKWESGYNTRATNYNAGDRSTDYGIFQINSRYWCNDGKTPGAVNACHLSCSALLQDNIADAVACAKRVVRDPQGIRAWVAWRNRCQNRDVRQYVQGCGV
B1: in assay [2], the Kd was determined as 9.2 µM.

By Kd is commonly meant the concentration at which binding is half-saturated.
